Here are results for 2 proteins from PMC11208146, “Molecular basis for transposase activation by a dedicated AAA+ ATPase” (Nature, 2024).

Several values for one entry are separate records, joined by “and”; a condition that tells them apart may be missing. Identical values can stand only once.

The stoichiometry N is the number of molecules, sites or subunits per partner or assembly.

Data set [1] deals with the molecule itself. Description: cryo-EM structure; IstB wild type with a 60-mer duplex DNA (6.5:1) and 1 mM ATP; 20 mM HEPES pH 7.5, 150 mM NaCl, 5 mM MgCl2, 1 mM DTT; 3.2 Å.
Data set [2] deals with the molecule itself. Description: cryo-EM structure; IstA pre-incubated with strand-transfer-complex DNA (3.3:1), then IstB E167Q (5:1 to IstA), 37 °C; 20 mM HEPES pH 7.5, 150 mM NaCl, 5 mM MgCl2, 1 mM ATP, 1 mM DTT; 3.6 Å.

B1: IstB ATPase, wild type, full length (IS5376, Geobacillus stearothermophilus) (enzyme, UniProt Q45619 1-251, looked up)
chain: MKERIHEYCHRLHLPVMAERWSAMAEYASTHNISYSEFLFRLLEAEIVEKQARSIQTLIKLSKLPYRKTIDTFDFTAQPSVDERRIRELLTLSFIDRKENILFLGPPGIGKTHLAISIGMEAIARGYKTYFITAHDLVNQLRRADQEGKLEKKLRVFVKPTVLIIDEMGYLKLDPNSAHYLFQVIARRYEHAPIILTSNKSFGEWGEIVGDSVLATAMLDRLLHHSIIFNLKGESYRLREKRLQEEKQKDQ
notes: IstB, AAA+ ATPase of the IS21 family member IS5376, Geobacillus stearothermophilus, full length; Tag cleaved on-column with PreScission protease; Assembles into a pentamer of dimers (decamer) on DNA with ATP; also called IstB WT; IstB AAA+ ATPase regulator; source: E. coli BL21 codon-plus (DE3) RIL, purified (Ni-Sepharose, amylose resin, gel filtration); not shown: His6, N-terminal, cleaved; MBP, …
In the case of B1, in data set [1], the “stoichiometry N” value was 10 and 8.

B2: IstB E167Q (Walker B mutant) (enzyme, Geobacillus stearothermophilus, UniProt Q45619 1-251, looked up)
chain: MKERIHEYCHRLHLPVMAERWSAMAEYASTHNISYSEFLFRLLEAEIVEKQARSIQTLIKLSKLPYRKTIDTFDFTAQPSVDERRIRELLTLSFIDRKENILFLGPPGIGKTHLAISIGMEAIARGYKTYFITAHDLVNQLRRADQEGKLEKKLRVFVKPTVLIIDQMGYLKLDPNSAHYLFQVIARRYEHAPIILTSNKSFGEWGEIVGDSVLATAMLDRLLHHSIIFNLKGESYRLREKRLQEEKQKDQ
notes: IstB, AAA+ ATPase of IS5376, Geobacillus stearothermophilus, with the Walker B mutation E167Q; The methods describe only the purification of full-length IstB (His6-MBP tag, cleaved); also called WB; source: purified
Take B2: the “stoichiometry N” value in data set [2] was 10 and 20.
